Assay results from article PMC11359734, “Two enzymes contribute to citrate production in the mitochondrion of Toxoplasma gondii” (The Journal of Biological Chemistry, 2024).

Experiments:
[1] = substrate: CC(=O)SCCNC(=O)CCNC(=O)[C@H](O)C(C)(C)COP(=O)(O)OP(=O)(O)OC[C@H]1O[C@@H](n2cnc3c(N)ncnc32)[C@H](O)[C@@H]1OP(=O)(O)O; assay: citrate synthase kit, OD412, 96-well plate; assay type: biochemical, Toxoplasma gondii; settings: co-substrate oxaloacetate
[2] = substrate: O=C(O)CC(=O)C(=O)O; assay: citrate synthase kit, OD412, 96-well plate; assay type: biochemical, Toxoplasma gondii; settings: co-substrate acetyl-CoA

Protein	Km [1]	Km [2]
TgCS1 (Toxoplasma gondii) (protein, residues 95-559 (N-terminal part removed), His-tagged fusion from pESUMO vector, expressed in E. coli Transetta (DE3), Ni2+ column) SARSVCGGLSNAEARAAVEAALDALAEKVQEAAEPKRELLKTLRKEHGTVVISEATLSTVCGGMRGLTAILTETSTLHAEKGILYRGLTINECLAKLPRMHKEEYPAVEGLIWFLMTGSIPTVNEVELLSNALYALSLSSASSSPSAPFIPPHVGKVLDAVPPSTHPMTQLVMAAAALQPTSELAQAYRHKTVSRHDLWKPALADALSLIAKNAVMAARIFRRSFRDGQEIDPAANFGHMMGFNSKEHQELFRLYLFLHADHEGGNVSAHAAHVVGSALSDPFLAFSAGMAGLAGPLHGLANQECLNWLRDVHCKLNGAAPTRENVKKIAEDTLASGRVIPGYGHAVLRVTDPRFTAQREFALKYLKDDELFQLLNVAYNTIPDVLLATGKVKNPYPNVDCHSGVLLQHFGITEADFYTVLFGVSRAIGIACQYVWDRILGLPIERPKSTTLDLLKAACVERKGN	0.4693 µM	1.423 µM
TgPrpC (Toxoplasma gondii) (protein, residues 113-619 (N-terminal part removed), His-tagged fusion from pESUMO vector, expressed in E. coli Transetta (DE3), Ni2+ column) QSGVHVPTAPSDCAFSPDWRSVCCSQTFSAVSTTTLERQITKENSKNGIECLNAESENCFGFALLLRHRCGLHSGSVDPPLCSLTRRKPTWQRQTTAFLSSTMARQPLETSYEQRKDSEFSPGLEGVVAGESAISSVGPASLAGLTYRGYRIDDLTEKATFEEVVFLLLHDRLPTKQELDAQHQELVLARRLPPSLKACLEYFPKNSHPMDVVRTGCSMMGMLEQENAPPDQQAKIGLRLIGMYSSMLLYWYHYAHHGIRICEETDPADSVAAHFLKLLNQHSSGPHPLEVKAVDISLILYAEHDFNASTFAARVTAATRSDIYSAICSAIGTLKGPLHGGANEAAIMFLRKLRDMQQADQELESIWRHHERVMGFGHRLYKEGDPRSHIMMKVALDLAQNAPKKDPNLVQIAQHIEERMEKEKHLPANVDFPCALAYHQCGIPTDLYTPLFVLARTAGWTAHIMEQRANNRLIRPVSHYVGPPVRPFPSFEEREKLANPSEQSRSR	1.169 µM	1.661 µM
